Results on four molecules are retold here after patent publication US20150291685A1 (AstraZeneca / MedImmune, published 2015).

Assay [1] addresses T1, S. aureus Iron regulated surface determinant H (IsdH) (Staphylococcus aureus, UniProt Q2FXJ2 41-864, limits assumed).
T1 sequence (looked up): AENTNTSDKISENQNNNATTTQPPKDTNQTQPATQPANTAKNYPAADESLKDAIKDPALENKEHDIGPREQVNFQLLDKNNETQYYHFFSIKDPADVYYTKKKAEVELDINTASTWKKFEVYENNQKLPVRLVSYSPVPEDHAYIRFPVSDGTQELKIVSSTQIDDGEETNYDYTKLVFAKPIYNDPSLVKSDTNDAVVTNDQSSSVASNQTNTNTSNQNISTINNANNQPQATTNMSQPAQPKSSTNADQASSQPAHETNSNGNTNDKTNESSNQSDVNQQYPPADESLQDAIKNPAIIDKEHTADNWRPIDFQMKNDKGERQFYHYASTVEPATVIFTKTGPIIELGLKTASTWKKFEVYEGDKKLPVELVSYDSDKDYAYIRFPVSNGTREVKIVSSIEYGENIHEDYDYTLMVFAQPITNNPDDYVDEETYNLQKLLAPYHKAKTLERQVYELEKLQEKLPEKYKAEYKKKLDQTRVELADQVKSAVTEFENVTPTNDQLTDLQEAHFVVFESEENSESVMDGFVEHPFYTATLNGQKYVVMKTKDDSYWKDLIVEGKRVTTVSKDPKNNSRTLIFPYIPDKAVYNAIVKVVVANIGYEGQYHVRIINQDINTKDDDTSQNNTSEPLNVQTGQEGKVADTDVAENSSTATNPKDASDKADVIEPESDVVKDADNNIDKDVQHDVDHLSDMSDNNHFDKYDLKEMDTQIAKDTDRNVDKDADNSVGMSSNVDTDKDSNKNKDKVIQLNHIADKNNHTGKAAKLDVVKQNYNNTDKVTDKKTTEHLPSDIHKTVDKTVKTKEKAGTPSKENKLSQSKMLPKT
Put plainly: hu_IgGFc capture assay, mean of three experiments.

In assay [2] the target is T2, Neat-2 subunit of IsdH (Staphylococcus aureus, UniProt Q2FXJ2 345-471).
T2 construct: domain: Neat-2; also called subunit Neat-2
T2 sequence (looked up): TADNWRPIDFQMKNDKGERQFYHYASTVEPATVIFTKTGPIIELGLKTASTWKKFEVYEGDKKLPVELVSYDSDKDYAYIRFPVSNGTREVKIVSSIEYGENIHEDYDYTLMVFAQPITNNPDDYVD
Put plainly: hu_IgGFc capture assay, mean of three experiments.

Assay [3] deals with T2, Neat-2 subunit of IsdH. In words: competition ELISA: haptoglobin (Hp) binding to Neat-2 of IsdH with rising antibody concentration.
For assay [4], the target named is T3, Neat-1 (Staphylococcus aureus).
T3 construct: domain of IsdH; also called subunit Neat-1 on IsdH; NEAT1 motif of IsdH
In words: competition ELISA: haptoglobin (Hp) binding to Neat-1 of IsdH with rising antibody concentration. On the technique in general: ELISA stands for enzyme-linked immunosorbent assay.

The target of assay [5] is T4, S. aureus clumping factor protein ClfA (Staphylococcus aureus, UniProt Q2G015 221-559, limits assumed).
T4 sequence (looked up): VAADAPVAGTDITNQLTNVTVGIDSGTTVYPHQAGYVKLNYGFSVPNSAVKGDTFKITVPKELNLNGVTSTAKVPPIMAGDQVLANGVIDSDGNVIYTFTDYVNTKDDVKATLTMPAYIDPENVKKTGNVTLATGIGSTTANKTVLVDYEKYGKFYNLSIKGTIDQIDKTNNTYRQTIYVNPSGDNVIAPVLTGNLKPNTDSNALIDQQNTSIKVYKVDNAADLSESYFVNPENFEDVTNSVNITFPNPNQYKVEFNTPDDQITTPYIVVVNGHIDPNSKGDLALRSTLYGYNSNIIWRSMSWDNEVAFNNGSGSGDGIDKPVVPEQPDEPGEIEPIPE
In words: inhibition of ClfA binding to immobilized fibrinogen; the curve reaches about 60-65 % inhibition [table].

The target of assay [6] is T4, S. aureus clumping factor protein ClfA. Put plainly: inhibition of ClfA binding to immobilized fibrinogen; the curve reaches about 55-62 % inhibition [table].

As a reminder, the Kd is the concentration at which binding is half-saturated. High values mean weaker binding, low ones tighter binding. Usually IC50 stands for the concentration that inhibits the measured activity by half.

B1: mAb 2F4 (antibody, V domains shown)
VH: EVQLLESGGGLVQPGGSLRLSCAASGFTFSPYMMQWVRQAPGKGLEWVSSIWPSGGKTYYADSVKGRFTISRDNSKNTLYLQMNSLRAEDTAVYYCARVRRGGATDYWGQGTLVTVSS
VL: DIQMTQSPATLSVSPGERATLSCRASQSVSSNLGWYQQKPGQAPRLLIYGASTRATGIPTRFSGSGSGTEFTLTISSLQSEDFATYYCQQYQNWPLLTFGGGTKVEIK
notes: also called antibody 2F4; anti-IsdH mAb 2F4
B1: the Kd was 3.66 nM in assay [1] and 2.57 nM in assay [2]. For the same molecule, the “IC50 (read off the curve)” value in assay [3] was roughly 1 µg/mL.

B2: mAb 1C1 (antibody, V domains shown)
VH: EVQLLESGGGLVQPGGSLRLSCAASGFTFSRYFMGWVRQAPGKGLEWVSSIYSSGGYTSYADSVKGRFTISRDNSKNTLYLQMNSLRAEDTAVYYCARRWRDGTFDYWGQGTLVTVSS
VL: DIQMTQSPSSLSASIGDRVTISCRASQSVREYLNWYQQKPGKAPKLLIFAASSLQSGVPSRFSGSGSGTDFTLTISSLQPEDFATYYCQQSYSTRFTFGPGTKVDIK
notes: also called antibody 1C1
Turning to B2, the “IC50 (read off the curve)” value in assay [4] is roughly 3 µg/mL.

B3: mAb 23D6 (antibody, V domains shown)
VH: QVQLVESGGGVVQPGRSLRLSCAASVFTFSSYGMHWVRQAPGKGLEWVALIWFDGSNEYYADSVKGRFTISRDNSKNTLYLQMNSLRAEDTAVYYCARDRGGGYYYYGMDVWGQGTTVTVSS
VL: DIQMTQSPSSLSASVGDRVTITCRASQGIRNDLGWYQQKPGKAPKRLIYAASSLQSGVPSRFSGSGSGTEFTLTISSLQPEDFATYYCLQHNSYPYTFGQGTKLEIK
notes: also called anti-ClfA antibody 23D6
In assay [5], B3 had an IC50 of 1.92 µg/mL.

B4: anti-ClfA mAb 11H10 (antibody, V domains shown)
VH: EVQLLESGGGLVQPGGSLRLSCAASGFTFSSFAMSWVRQAPGKGLEWVSAISGSGGNTYYADSVKGRFTISRDNSKNTLYLQMNSLRAEDTAVYYCAKIAFDIWGQGTMVTVSS
VL: DIQMTQSPSSLSASVGDRVTITCRASQGIRNDLGWYQQKPGKAPKRLIYVASSLQSGVPSRFSGSGSGTEFTLTISSLQPEDFATYYCLQHNSYPFTFGPGTKVDIK
B4 returned a half-maximal inhibitory concentration (IC50) in assay [6] of 0.871 µg/mL.
